Experimental findings from patent publication US20200087416A1 are described below.

For experiment [1], the target named is cynomolgus PCSK-9 (cynomolgus). As to the kind of experiment: BLI (ForteBio), IgG on AHQ sensor, 100 nM antigen. In general terms: BLI is a label-free optical method that tracks binding on a fibre tip over time.
For experiment [2], the target named is cynomolgus PCSK-9 (cynomolgus). As to the kind of experiment: MSD-SET, Fab with biotin-PCSK9 in solution, IgG on plate, pH 7.4.
For experiment [3], the target named is human PCSK9 (PCSK9 antigen, SEQ ID NO. 53) (human). Put plainly: MSD-SET, Fab with biotin-PCSK9 in solution, IgG on plate, pH 6.0.
The next experiment addresses murine PCSK-9 (murine) (UniProt Q80W65). As to the kind of experiment: MSD-SET, Fab with biotin-PCSK9 in solution, IgG on plate, pH 7.4.
The target of experiment [4] is human PCSK9 (PCSK9 antigen, SEQ ID NO. 53) (human). The experiment is described as above.

B1: Lodelcizumab (antibody, INN chains, looked up, V domains shown)
VH: QVQLVQSGAEVKKPGASVKVSCKASGYTFSTMYMSWVRQAPGQGLEWMGRIDPANEHTNYAQKFQGRVTMTRDTSISTAYMELSRLTSDDTAVYYCARSYYYYNMDYWGQGTLVTVSS
VL: QIVLTQSPATLSVSPGERATLSCRASQSVSYMHWYQQKPGQAPRLLIYGVFRRATGIPDRFSGSGSGTDFTLTIGRLEPEDFAVYYCLQWSSDPPTFGQGTKLEIK
In experiment [1], B1 displayed a dissociation constant (Kd) of 2.34 nM.

B2: Lodelcizumab Fab (Fab, INN chains, looked up, V domains shown)
VH: B1 VH
VL: B1 VL
modifications: Fab
Molecule B2 yielded a Kd in experiment [2] of 0.1 nM.

B3: Bococizumab Fab (Fab, INN chains, looked up, V domains shown)
VH: QVQLVQSGAEVKKPGASVKVSCKASGYTFTSYYMHWVRQAPGQGLEWMGEISPFGGRTNYNEKFKSRVTMTRDTSTSTVYMELSSLRSEDTAVYYCARERPLYASDLWGQGTTVTVSS
VL: DIQMTQSPSSLSASVGDRVTITCRASQGISSALAWYQQKPGKAPKLLIYSASYRYTGVPSRFSGSGSGTDFTFTISSLQPEDIATYYCQQRYSLWRTFGQGTKLEIK
modifications: Fab
B3: the Kd in experiment [3] was determined as 0.038 nM; with murine PCSK-9 (murine), 0.065 nM; in experiment [2], 0.026 nM; in experiment [4] it was 0.021 nM.

For orientation: Kd means the free concentration of one partner at which half of the binding sites on the other are occupied at equilibrium, for simple one-to-one binding. Read a high Kd as a looser complex.
